The record followed here is patent publication US11866731.

“And” between values parts separate entries of the source, which are not always exact repeats. Equal entries are not always repeated. Where two headings read alike, the source gives them in different places.

Experiment [1] has as its target CD19 (B cell surface protein) on B cells (UniProt P15391). As to the kind of experiment: cell-based or functional assay.
Experiment [2] has the same target. Nature of the experiment: cell-based or functional assay. This is another data set of the same source.

UniProt P15391, sequence (P15391 20-556 limits assumed): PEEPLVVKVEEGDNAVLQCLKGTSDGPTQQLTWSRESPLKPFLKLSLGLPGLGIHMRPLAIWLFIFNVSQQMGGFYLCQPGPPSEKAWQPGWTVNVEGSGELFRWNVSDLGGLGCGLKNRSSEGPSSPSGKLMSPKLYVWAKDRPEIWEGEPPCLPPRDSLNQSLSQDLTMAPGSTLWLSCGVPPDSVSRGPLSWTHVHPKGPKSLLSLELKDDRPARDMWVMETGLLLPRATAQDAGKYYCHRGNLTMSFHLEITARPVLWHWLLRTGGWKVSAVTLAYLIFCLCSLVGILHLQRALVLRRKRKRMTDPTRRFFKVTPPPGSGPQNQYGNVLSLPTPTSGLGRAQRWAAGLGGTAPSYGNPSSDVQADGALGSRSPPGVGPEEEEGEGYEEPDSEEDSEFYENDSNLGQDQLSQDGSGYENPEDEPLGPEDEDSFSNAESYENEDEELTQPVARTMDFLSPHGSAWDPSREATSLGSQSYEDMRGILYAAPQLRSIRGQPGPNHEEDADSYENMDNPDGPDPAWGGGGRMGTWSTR

B1: chimeric antigen receptor targeting B cell surface protein (BCAR), CD19 CAR (protein, part only; not given: transmembrane and signaling domains, part only)
chain, part: DIVLTQSPASLAMSLQLGWRPGWFLDSPDRVIGAHLIHWYQQKPGQPPKLLIYLASNLETGVPARFSGSGSGTDFTLTIDPVEEDDVAIYSCLQSRIFPRTFGGGTKLEIKGGGGSGGGGSGGGGSQIQLVQSGPELKKPGETVKISCKASGYTFTDYSINWVKRAPGKGLKWMGWINTETREPAYAYDFRGRFAFSLETSASTAYLQINNLKYEDTATYFCALDYSYAMDYWGQGTSVTVSS
As to B1, in experiment [1], the Expansion of T cells (fold, after 4 days of co-culture with B cells and J82-NY-ESO-1-Luc cells) was 12 fold and 27 fold; the Expansion of T cells (fold, after 96 hours of co-culture with tumor cells and B cells) was found to be 25 fold; the Killing of J82-NY ESO1 tumor cells by BCAR-TCR T (RTCA Cell Index), with against without B cells was 1000 times. Besides, in experiment [2], the Expansion of T cells (fold, after 96 hours of co-culture with tumor cells and B cells) worked out at 23 fold.
